Results on one molecule are retold here after patent publication US20220380473A1, “ANTI-GAL3 ANTIBODIES AND USES THEREOF” (TrueBinding, Inc., priority 2019, published 2022).

One test concerns hGal3 peptides. In words: ELISA of antibody binding to hGal3 peptides (Example 14). On the set-up: species or system human. The note with it: 0.1 ug/ml antibody. Here is the method: A library of 20 amino acid peptides each representing a certain regions of hGal3 (SEQ ID NO: 1) was produced. At least 2 ug/ml of the produced hGal3 peptide: peptide 1 (SEQ ID NO: 3), 5 (SEQ ID NO: 7), 6 (SEQ ID NO: 8), 8 (SEQ ID NO: 10), or 23 (SEQ ID NO: 25) in 50 ul of PBS was added to the wells of a 96-well ELISA plate (Thermo Fisher, 44-2404-21). As a positive control, 0.1 ug/ml of full-length human Galectin-3 protein (Acro Biosystems, GA3-H5129) in 100 ul of PBS was added to the wells of the ELISA plate. After incubating the plate at 4° C. overnight, the plate was washed three times with 300 ul of PBST per well. The plate was then blocked for an hour with 200 ul of 2% BSA in PBST per well at room temperature with gentle rocking. Thereafter, the 2% BSA in PBST was removed and 100 ul of 0.1 ug/ml of antibody in 2% BSA in PBST was added to the wells (FIG. 17A-B). As for negative control group, the antibodies were applied without the hGal3 peptides or the hGal3 protein.
The plate was incubated for an hour at room temperature with gentle rocking and then washed three times with 300 μl of PBST per well. […] The reaction was stopped with 50 ul of 1M HCl (VWR) per well and the plate was read using a plate reader (Molecular Devices) at absorbance of 450 nm.
(In general: ELISA stands for enzyme-linked immunosorbent assay.)

For test [1], the system named is mouse bleomycin-induced lung fibrosis model. Nature of the test: Mouse bleomycin-induced lung fibrosis model. Format: in vivo. Here is the method:
Fibrosis of the lung represents an additional significant form of fibrotic disease with significant health impacts in humans. To evaluate if the anti-fibrotic effects of GAL3-TIM3 blockade extend into the setting of lung fibrosis, a mouse bleomycin-induced lung fibrosis model was evaluated for sensitivity to mIMT001. Briefly, C57Blck/6 male mice were injected intra-tracheally with 30 ug of Bleomycin Sulfate (MP biomedicals, cat #190306) reconstituted in 50 ul of PBS. Mice were treated on day 18, 20, 22, and 24 with mIgG2b isotype control, anti-GAL3 antibody (mIMT001) (10 mg/kg) by tail vein injection, or small molecule TD139 (Med Chem Express, cat #HY-19940) at 10 uM in 50 ul of Captisol (Med Chem Express, cat #HY-17031) injected intra-tracheally. Mice were sacrificed on day 27 and lungs were surgically dissected and fixed in 4% paraformaldehyde for 24 hours, exchanged into 70% ethanol, and embedded in paraffin. Lung fibrosis in fixed specimens was evaluated by Masson's trichrome staining kit (26367) from Electron Microscopy Sciences (Hatfield, Pa.). […] lung sections were affixed to glass slides, After deparaffinization, rehydration in serial ethanol baths. Staining was performed by incubating in Bouin's fixative for 1 h at 56 degree, staining with Briebrich Scarlet/acid fuchsin, Phosphomolybdic Acid-Phosphotungstic Acid and Aniline Blue, then differentiated in acetic acid, prior to their dehydration, clearing and mounting.

Another test has as its target Galectin-3 (Homo sapiens, UniProt P17931). In words: SPR (BiacoreT200) binding affinity. The note with it: 25° C., read-out: hGal-3 KD. Here is the method: GAL3-binding antibodies were evaluated for their binding affinity by SPR. Kinetics experiments were performed on BiacoreT200 at 25° C. in high performance mode. Ligand proteins, purified antibodies were captured onto a CM5 chip coupled with anti-human Fc or anti-mouse Fc antibody, three antibodies at a time onto flow cell #2, 3, and 4, respectively, while flow cell #1 was used as reference. The analyte Galectin-3 in HBS-EP buffer was injected over all four flow cells at concentrations of 100, 50, 25, 12.5, 6.25, 3.125 and 0 nM at a flow rate of 30 μL/min. The complex was allowed to associate and dissociate for 240 and 300 seconds, respectively. The surfaces were regenerated with a 30 second injection of 10 mM Glycine pH 1.7 (flow rate 30 μL/min). The data were fit to a simple 1:1 interaction model using the global data analysis option available within BiacoreT200 Evaluation software V2.0. The affinity of Gal3 monoclonal antibodies was confirmed to be […] 30 nM for all antibodies studied (Table 24.1). Antibodies with affinity less than 2E-7 were selected for further characterization.
A general note: Surface plasmon resonance follows binding to a sensor surface in real time, without labels.

The test system of another test is human Gal3 protein. Nature of the test: Epitope binding of IMT001, hGal3 peptide array dot blot and peptide ELISA. As to conditions: dot blot, 1 ug/ml antibody. Here is the method:
A peptide array containing 24 20 amino acid peptides overlapping by 10 amino acid and covering the whole human Gal3 protein sequence was synthesized (Genscript, Piscataway, N.J.) (FIG. 11A). 20 μg of each peptide was dot blotted onto a membrane. After blocking with 5% milk in PBS, the membrane was incubated with 1 ug/ml IMT001 antibody at 4C for overnight. After three times of washes, the membrane was incubated with 1:8000 diluted anti mIgG HRP antibody (Southern Biotech, Birmingham, Ala.) for one hour. After three times of washes, the membrane was incubated with Western ECL blotting substrates (Bio-Rad, Hercules, Calif.) and developed (FIG. 11B).
To further define binding epitope of IMT001 on the above peptide, 8 shorter peptides derived from it were synthesized (Genscript, Piscataway, N.J.) (FIG. 11C) and their binding by IMT001 was determined by ELISA (FIG. 11D). 96 well Elisa plate (Thermo Scientific) was coated with these peptides in PBS buffer and incubated at 4° C. for overnight. The plate was washed three times with TBST and then blocked with PBST buffer containing 2% BSA at room temperature for 1 h. IMT001 at 10 μg/mL was incubated in the coated Elisa plate at room temperature for 1 h. […] The optical density (OD) was read at 450 nm. The results were expressed as the average OD of duplicates±SD.

“Also recorded” adds a separate entry of the source.

Sequence of Galectin-3 (P17931 whole entry): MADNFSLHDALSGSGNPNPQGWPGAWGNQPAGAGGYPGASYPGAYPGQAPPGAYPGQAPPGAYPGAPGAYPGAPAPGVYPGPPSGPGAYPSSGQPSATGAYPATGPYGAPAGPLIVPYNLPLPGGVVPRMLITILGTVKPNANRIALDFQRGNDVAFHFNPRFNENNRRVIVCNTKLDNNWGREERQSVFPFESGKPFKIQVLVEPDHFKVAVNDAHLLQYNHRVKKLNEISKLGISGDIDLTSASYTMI

B1: IMT001: anti-Gal3 monoclonal antibody (Immutics); printed as mIMT001 (IMT001), murine (antibody, V domains shown)
VH: QIQLVQSGPELKKPGETVKISCKASGYTFTNYGMNWVKQAPGKGLKWMGWINTNTGEPTYVEEFKGRFAFSLETSASTAYLQINNLKNEDTATYFCAPYDNFFAYWGQGTLVTVSA
VL: DIVITQDELSNPVTSGESVSISCRSSKSLLYKDGKTYLNWFLQRPGQSPQLLIYLMSTHASGVSDRFSGSGSGTDFTLEISRVKAEDVGVYYCQQLVDYPLTFGAGTKLELK
For B1, in the test on hGal3 peptides, the hGal3 peptides bound was 5 (SEQ ID NO: 7), 6 (SEQ ID NO: 8), and 8 (SEQ ID NO: 10). This molecule came in with an Ashcroft score in test [1] (10 mg/kg tail vein day 18, 20, 22, 24, isotype 5.74) of 4.09. In test [1] (vs isotype control), the “decrement in fibrotic injury” value is reported as 29% and the “lung fibrosis, Masson's trichrome” value is “substantially reduced”. For the same molecule, the Kd with Galectin-3 amounted to 1.67 nM. In addition, in the test with human Gal3 protein, the “epitope on hGal3, 20 amino acid peptide array” value is “Peptides 5 and 6; also recorded: peptide_5”.

As usually defined, the Kd is the free concentration of one partner at which half of the binding sites on the other are occupied at equilibrium, for simple one-to-one binding.
